Experimental data: patent publication US10160948B2, “Pluripotent embryonic-like stem cells, compositions, methods and uses thereof” (ABT HOLDING COMPANY, priority 1999, dated 2018)

Tests used:
pluripotent stem cells = test: Proliferation and phenotypic responses to bioactive factors: pluripotent cells; type: cell-based
Source text: (§1) Having access to mixed populations of progenitor stem cells, progenitor stem cell clones, and pluripotent stem cell clones permits one to address the influence of various bioactive factors (e.g. recombinant growth factors, purified compounds, and novel inductive factors) on the growth characteristics and phenotypic expression of these stem cells.
Cryopreserved cells are thawed and plated in MSC-1 at 5, 10, or 20×10^3 cells per well of gelatinized 24-well plates following the standard protocol. Twenty-four hours after initial plating the medium is changed to testing medium (TM) 1 to 6 (TM-1, TM-2, TM-3, TM-4, TM-5, or TM-6). TM-1 to TM-4 consist of Ultraculture (cat. no. 12-725B, lot. nos. OMO455 [TM-1], 1M1724 [TM-2], 2M0420 [TM-3], or 2M0274 [TM-4], Bio-Whittaker, Walkersville, Md.), medium (EMEM or Opti-MEM 0.01 mM β-mercaptoethanol), and 1% (v/v) antibiotic-antimycotic, pH 7.4. TM-5 consists of 98% (v/v) medium, 1% (v/v) HS, and 1% (v/v) antibiotic-antimycotic, pH 7.4. TM-6 consists of 98.5% (v/v) medium, 0.5% (v/v) HS, and 1% (v/v) antibiotic-antimycotic, pH 7.4. […] Four testing media (TM#'s 1-4), each containing various concentrations of Ultraculture, were used as. […] The four Ultraculture-based testing media were: TM-1=15% (v/v) Ultraculture (Lot no. OMO455): 84% (v/v) medium: 1% (v/v) antibiotics; TM-2=15% (v/v) Ultraculture (Lot no. 1M1724): 84% (v/v) medium: 1% (v/v) antibiotics; TM-3=50% (v/v) Ultraculture (Lot no. 2M0420): 49% (v/v) medium: 1% (v/v) antibiotics; and TM-4=75% (v/v) Ultraculture (Lot no. 2M0274): 24% (v/v) medium: 1% (v/v) antibiotics. Pre-incubation for 24 hr in testing medium alone is used to wash out any potential synergistic components in the MSC-1 medium. Twenty-four hours later the testing medium is changed to one of the following. For controls, TM-1 to TM-6 alone is used. To identify clones of progenitor cells, the medium is replaced with TM-1 to TM-6 containing 2 μg/ml insulin (Sigma), an agent that accelerates the appearance of phenotypic expression markers in progenitor cells (TABLE 12). […]

progenitor stem cells = test: Proliferation and phenotypic responses to bioactive factors: progenitor cells; type: cell-based
Source text: as §1
Cryopreserved cells are thawed and plated in MSC-1 at 5, 10, or 20×10^3 cells per well of gelatinized 24-well plates following the standard protocol. Twenty-four hours after initial plating the medium is changed to testing medium (TM) 1 to 6 (TM-1, TM-2, TM-3, TM-4, TM-5, or TM-6). TM-1 to TM-4 consist of Ultraculture (cat. no. 12-725B, lot. nos. OMO455 [TM-1], 1M1724 [TM-2], 2M0420 [TM-3], or 2M0274 [TM-4], Bio-Whittaker, Walkersville, Md.), medium (EMEM or Opti-MEM 0.01 mM β-mercaptoethanol), and 1% (v/v) antibiotic-antimycotic, pH 7.4. TM-5 consists of 98% (v/v) medium, 1% (v/v) HS, and 1% (v/v) antibiotic-antimycotic, pH 7.4. TM-6 consists of 98.5% (v/v) medium, 0.5% (v/v) HS, and 1% (v/v) antibiotic-antimycotic, pH 7.4. […] Four testing media (TM#'s 1-4), each containing various concentrations of Ultraculture, were used as. […]

[1] = presence and approximate distribution of differentiated phenotypes within the culture wells

B1: PDECGF: Platelet-derived endothelial cell growth factor (protein, UniProt P19971 11-482, looked up)
Thymidine phosphorylase: APPAPGDFSGEGSQGLPDPSPEPKQLPELIRMKRDGGRLSEADIRGFVAAVVNGSAQGAQIGAMLMAIRLRGMDLEETSVLTQALAQSGQQLEWPEAWRQQLVDKHSTGGVGDKVSLVLAPALAACGCKVPMISGRGLGHTGGTLDKLESIPGFNVIQSPEQMQVLLDQAGCCIVGQSEQLVPADGILYAARDVTATVDSLPLITASILSKKLVEGLSALVVDVKFGGAAVFPNQEQARELAKTLVGVGASLGLRVAAALTAMDKPLGRCVGHALEVEEALLCMDGAGPPDLRDLVTTLGGALLWLSGHAGTQAQGAARVAAALDDGSALGRFERMLAAQGVDPGLARALCSGSPAERRQLLPRAREQEELLAPADGTVELVRALPLALVLHELGAGRSRAGEPLRLGVGAELLVDVGQRLRRGTPWLRVHRDGPALSGPQSRALQEALVLSDRAPFAAPSPFAELVLPPQQ
With B1 the “Proliferation, Pluripotent: number of times the agent increased the DNA content per well versus its respective control” value (pluripotent stem cells) was 1 times, the “activity on pluripotent and progenitor stem cells, in words” value (pluripotent stem cells; pluripotent and progenitor cells) was “no measurable effect on either progenitor or pluripotent stem cells” and the “Phenotypic Expression, Pluripotent” value (pluripotent stem cells; [1]) was 0. For the same molecule, the “Proliferation, Progenitor: number of times the agent increased the DNA content per well versus its respective control” value (progenitor stem cells) was 1 times and the “Phenotypic Expression, Progenitor” value (progenitor stem cells; [1]) was “All+”.
